Results as given in IntAct's records for PubMed 29892012.

B1: Ribosome assembly protein METTL17, mitochondrial (Homo sapiens), Q9H7H0 (parent)
chain: MAAALKCLLTLGRWCPGLGVAPQARALAALVPGVTQVDNKSGFLQKRPHRQHPGILKLPHVRLPQALANGAQLLLLGSAGPTMENQVQTLTSYLWSRHLPVEPEELQRRARHLEKKFLENPDLSQTEEKLRGAVLHALRKTTYHWQELSYTEGLSLVYMAARLDGGFAAVSRAFHEIRARNPAFQPQTLMDFGSGTGSVTWAAHSIWGQSLREYMCVDRSAAMLVLAEKLLKGGSESGEPYIPGVFFRQFLPVSPKVQFDVVVSAFSLSELPSKADRTEVVQTLWRKTGHFLVLVENGTKAGHSLLMDARDLVLKGKEKSPLDPRPGFVFAPCPHELPCPQLTNLACSFSQAYHPIPFSWNKKPKEEKFSMVILARGSPEEAHRWPRITQPVLKRPRHVHCHLCCPDGHMQHAVLTARRHGRDLYRCARVSSWGDLLPVLTPSAFPPSTAQDPSES
B2: Ribosome assembly protein METTL17, mitochondrial (Homo sapiens), Q9H7H0 (parent)
chain: B1 chain
partner: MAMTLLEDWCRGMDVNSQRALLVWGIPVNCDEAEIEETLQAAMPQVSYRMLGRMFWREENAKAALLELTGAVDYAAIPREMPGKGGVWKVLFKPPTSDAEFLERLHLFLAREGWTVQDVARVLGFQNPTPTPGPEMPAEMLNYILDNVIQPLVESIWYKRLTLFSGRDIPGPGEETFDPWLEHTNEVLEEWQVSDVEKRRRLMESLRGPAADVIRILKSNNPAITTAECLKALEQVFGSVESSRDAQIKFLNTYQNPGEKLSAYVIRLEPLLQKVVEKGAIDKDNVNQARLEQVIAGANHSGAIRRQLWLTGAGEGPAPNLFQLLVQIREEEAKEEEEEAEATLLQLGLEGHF
B3: Coiled-coil domain-containing protein 120 (Homo sapiens), Q96HB5-4 (parent)
chain: MRREPRYQGQVGPDIHTDSERTLSSHQPRPLDSTKMEVKGQLISSPTFNAPAALFGEAAPQVKSERLRGLLDRQRTLQEALSLKLQELRKVCLQEAELTGQLPPECPLEPGERPQLVRRRPPTARAYPPPHPNQAHHSLCPAEELALEALEREVSVQQQIAAAARRLALAPDLSTEQRRRRRQVQADALRRLHELEEQLRDVRARLGLPVLPLPQPLPLSTGSVITTQGVCLGMRLAQLSQEDVVLHSESSSLSESGASHDNEEPHGCFSLAERPSPPKAWDQLRAVSGGSPERRTPWKPPPSDLYGDLKSRRNSVASPTSPTRSLPRSASSFEGRSVPATPVLTRGAGPQLCKPEGLHSRQWSGSQDSQMGFPRADPASDRASLFVARTRRSNSSEALLVDRAAGGGAGSPPAPLAPSASGPPVCKSSEVLYERPQPTPAFSSRTAGPPDPPRAARPSSAAPASRGAPRLPPVCGDFLLDYSLDRGLPRSGGGTGWGELPPAAEVPGPLSRRDGLLTMLPGPPPVYAADSNSPLLRTKDPHTRATRTKPCGLPPEAAEGPEVHPNPLLWMPPPTRIPSAGERSGHKNLALEGLRDWYIRNSGLAAGPQRRPVLPSVGPPHPPFLHARCYEVGQALYGAPSQAPLPHSRSFTAPPVSGRYYADFLYPPELSARLSDLTLEGEQSSSSDTQTPGTLV
partner: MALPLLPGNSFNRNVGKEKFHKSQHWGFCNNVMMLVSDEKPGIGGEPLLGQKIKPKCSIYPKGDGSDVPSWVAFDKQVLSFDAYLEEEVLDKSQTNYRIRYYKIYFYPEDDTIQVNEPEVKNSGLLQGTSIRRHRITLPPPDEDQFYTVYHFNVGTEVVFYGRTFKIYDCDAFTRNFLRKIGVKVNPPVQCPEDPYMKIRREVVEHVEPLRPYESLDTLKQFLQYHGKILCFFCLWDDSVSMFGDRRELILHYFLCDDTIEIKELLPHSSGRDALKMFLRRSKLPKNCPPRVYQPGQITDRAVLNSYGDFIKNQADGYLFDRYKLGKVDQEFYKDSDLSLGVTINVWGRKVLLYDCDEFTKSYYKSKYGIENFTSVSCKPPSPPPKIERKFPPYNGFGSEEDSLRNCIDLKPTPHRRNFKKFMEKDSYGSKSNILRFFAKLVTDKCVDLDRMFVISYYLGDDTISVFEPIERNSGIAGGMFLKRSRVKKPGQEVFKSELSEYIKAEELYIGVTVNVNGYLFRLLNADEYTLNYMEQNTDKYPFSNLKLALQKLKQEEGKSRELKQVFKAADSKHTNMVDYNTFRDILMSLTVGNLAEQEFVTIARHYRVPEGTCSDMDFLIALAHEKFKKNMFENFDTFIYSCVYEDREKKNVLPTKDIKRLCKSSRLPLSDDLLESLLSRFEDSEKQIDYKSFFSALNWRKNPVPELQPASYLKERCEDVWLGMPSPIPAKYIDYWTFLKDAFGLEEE
B4: Synaptotagmin-16 (Homo sapiens), Q17RD7 (parent)
chain: MVLAMASQDVQNFFQPFSSWISRVYEALQQAGDMLSASLVNISKQDSKLSDKLDQDLDNIQIQETYFEDEEQDNDWSQEDANSLFLEVDHFSCCNSDLQDSAQNSSPSLSQHAKDSCSTMSQWPNWASDDRKLPHVLSSIAEEEHHLEKQRSGLQHGFDSQLPGTLETVNGKKQVNSFGDDEELSTSSDSDEEVIKQFEISVSRSQSFRSVTSEKGKQTGLEQKPKFSRSLLTHGEDGTEVSACEDLDGASQRRYSENLSYGEDDHIPAHSQSPCERGDAKHHGTSHQESSVVQSLRRQSTEGSLEMETAFNSRGFEDSYATDSSSMWSPEEQDRTNLQVPSGVSEPISKCGDLDVIFEYRAASQKLTVTIVRAQGLPDKDRSGVNSWQVHVVLLPGKKHRGRTNIQRGPNPVFREKVTFAKLEPRDVAACAVRFRLYAARKMTRERMMGEKLFYLSHLHPEGEMKVTLVLEPRSNISSGGSPLSPSAVSHSDSTSSTQSLSHGGAPELLVGLSYNATTGRLSVEMIKGSHFRNLAVNRAPDTYGKLFLLNSVGQEMSRCKTSIRRGQPNPVYKETFVFQVALFQLSDVTLMISVYNRRTMKRKEMIGWIALGQNSSGEEEQDHWEEMKETKGQQICRWHTLLES
partner: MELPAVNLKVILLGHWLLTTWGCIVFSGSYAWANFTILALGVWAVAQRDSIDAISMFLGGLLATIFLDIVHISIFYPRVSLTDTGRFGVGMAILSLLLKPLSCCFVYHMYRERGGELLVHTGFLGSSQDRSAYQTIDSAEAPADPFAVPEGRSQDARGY

Variants of: B1
Conditions: with sf3b4_human SF3B4, Q15427
Chain of sf3b4_human SF3B4, Q15427 (Q15427 whole entry): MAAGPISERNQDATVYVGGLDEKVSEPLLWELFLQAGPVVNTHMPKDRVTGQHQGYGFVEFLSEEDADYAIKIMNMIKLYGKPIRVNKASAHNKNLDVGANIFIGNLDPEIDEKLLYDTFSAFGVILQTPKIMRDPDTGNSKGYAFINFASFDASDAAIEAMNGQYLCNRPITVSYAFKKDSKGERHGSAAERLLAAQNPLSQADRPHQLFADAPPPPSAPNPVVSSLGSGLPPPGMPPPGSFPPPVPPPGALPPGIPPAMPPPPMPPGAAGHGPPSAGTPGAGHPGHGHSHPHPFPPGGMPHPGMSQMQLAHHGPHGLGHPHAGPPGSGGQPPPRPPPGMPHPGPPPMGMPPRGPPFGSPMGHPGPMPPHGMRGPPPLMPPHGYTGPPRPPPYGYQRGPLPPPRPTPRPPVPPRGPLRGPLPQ

effect of a mutation on the interaction	Variant
with no effect	R212H

Variants of: B1
Conditions: with mdfi_human MDFI

effect of a mutation on the interaction	Variant
with no effect	R212H

Variants of: B2
Conditions: with pnma1_human PNMA1, Q8ND90

effect of a mutation on the interaction	Variant
with no effect	R212H

Variants of: B3
Conditions: with efhc2_human EFHC2, Q5JST6

effect of a mutation on the interaction	Variant
with no effect	R346W

Variants of: B4
Conditions: with atrap_human AGTRAP

effect of a mutation on the interaction	Variant
with no effect	R441W
